Laboratory results as given in paper PMC9775641, “Conformational Dynamics of the Receptor-Binding Domain of the SARS-CoV-2 Spike Protein” (Biomedicines, 2022).

Molecular target: T1, Wild-type (WT) receptor-binding domain (RBD) of SARS-CoV-2 spike protein, 330-528 aa fragment (SARS-CoV-2, wild type (Wuhan-1), UniProt P0DTC2)
T1 construct: also called WT RBD; wild-type RBD
Assay: SPR
Conditions: both partners purified

B1: SARS-CoV-2 neutralizing antibody P4A1 (full-length IgG1) (antibody, V domains shown)
VH: EVQLVESGGGLIQPGGSLRLSCAASGFIVSSNYMSWVRQAPGKGLEWVSIIYSGGSTFYADSVKGRFTISRDNSKNTLYLQMNSLRVEDTAVYYCARDLQELGSLDYWGQGTLVTVSS
VL: DIQMTQSPSSVSASVGDRVTITCRASQGISSWLAWYQQKPGKAPKLLIYAASSLQSGVPSRFSGSGSGTDFTLTISSLQPEDFATYYCQEANSFPYTFGQGTKLEIK
notes: also called P4AI; Ab
- kon: 770000 M⁻¹ s⁻¹
